The values below come from patent US20260070987A1.

To fix the notation:
B1: equine IgG4 Y436Q (antibody, part only; not given: variable domains, not shown: another chain or arm of the molecule)
constant: ASTTAPKVFPLASHSAATSGSTVALGCLVSSYFPEPVTVSWNSGALTSGVHTFPSVLQSSGLYSLSSMVTVPASSLKSQTYICNVAHPASSTKVDKKIVIKECNGGCPAECLQVGPSVFIFPPKPKDVLMISRTPTVTCVVVDVGHDFPDVQFNWYVDGVETHTATTEPKQEQFNSTYRVVSVLPIQHKDWLSGKEFKCKVNNKALPAPVERTISKPTGQPREPQVYVLAPHRDELSKNKVSVTCLVKDFYPTDIDIEWKSNGQPEPETKYSTTPAQLDSDGSYFLYSKLTVETNRWQQGTTFTCAVMHEALHNHQTEKSVSKSPGK
B2: equine IgG4 Y436S (antibody, part only; not given: variable domains, not shown: another chain or arm of the molecule)
constant: B1 constant with Q316S
B3: equine IgG4 T286Y (antibody, part only; not given: variable domains, not shown: another chain or arm of the molecule)
constant: B1 constant with T164Y, Q316Y
B4: equine IgG4 T286L (antibody, part only; not given: variable domains, not shown: another chain or arm of the molecule)
constant: B1 constant with T164L, Q316Y
B5: equine IgG4 T286V (antibody, part only; not given: variable domains, not shown: another chain or arm of the molecule)
constant: B1 constant with T164V, Q316Y
B6: equine IgG4 T286E (antibody, part only; not given: variable domains, not shown: another chain or arm of the molecule)
constant: B1 constant with T164E, Q316Y
B7: equine IgG4 T286I (antibody, part only; not given: variable domains, not shown: another chain or arm of the molecule)
constant: B1 constant with T164I, Q316Y
B8: equine IgG4 T286M (antibody, part only; not given: variable domains, not shown: another chain or arm of the molecule)
constant: B1 constant with T164M, Q316Y
B9: equine IgG4 T286S (antibody, part only; not given: Variable domains, not shown: another chain or arm of the molecule)
constant: B1 constant with T164S, Q316Y
B10: equine IgG4 T286H (antibody, part only; not given: variable domains, not shown: another chain or arm of the molecule)
constant: B1 constant with T164H, Q316Y
B11: equine IgG4 T286A (antibody, part only; not given: variable domains, not shown: another chain or arm of the molecule)
constant: B1 constant with T164A, Q316Y
B12: equine IgG4 T286D (antibody, part only; not given: variable domains, not shown: another chain or arm of the molecule)
constant: B1 constant with T164D, Q316Y
B13: equine IgG4 Y436R (antibody, part only; not given: variable domains, not shown: another chain or arm of the molecule)
constant: B1 constant with Q316R
B14: equine IgG4 T286Q (antibody, part only; not given: Variable domains, not shown: another chain or arm of the molecule)
constant: B1 constant with T164Q, Q316Y
B15: equine IgG4 Y436V (antibody, part only; not given: variable domains, not shown: another chain or arm of the molecule)
constant: B1 constant with Q316V
B16: equine IgG4 Y436T (antibody, part only; not given: variable domains, not shown: another chain or arm of the molecule)
constant: B1 constant with Q316T
B17: equine IgG4 T286P (antibody, part only; not given: variable domains, not shown: another chain or arm of the molecule)
constant: B1 constant with T164P, Q316Y
B18: equine IgG4 T286W (antibody, part only; not given: Variable domains, not shown: another chain or arm of the molecule)
constant: B1 constant with T164W, Q316Y
B19: equine IgG4 T286R (antibody, part only; not given: variable domains, not shown: another chain or arm of the molecule)
constant: B1 constant with T164R, Q316Y
B20: equine IgG4 T286G (antibody, part only; not given: variable domains, not shown: another chain or arm of the molecule)
constant: B1 constant with T164G, Q316Y
B21: equine IgG4 T286F (antibody, part only; not given: variable domains, not shown: another chain or arm of the molecule)
constant: B1 constant with T164F, Q316Y
B22: equine IgG4 T286C (antibody, part only; not given: variable domains, not shown: another chain or arm of the molecule)
constant: B1 constant with T164C, Q316Y
B23: equine IgG4 Y436W (antibody, part only; not given: variable domains, not shown: another chain or arm of the molecule)
constant: B1 constant with Q316W
B24: equine IgG4 T286K (antibody, part only; not given: variable domains, not shown: another chain or arm of the molecule)
constant: B1 constant with T164K, Q316Y
B25: equine IgG1 T286Y (antibody, part only; not given: variable domains, not shown: another chain or arm of the molecule)
constant: ASTTAPKVFALAPGCGTTSDSTVALGCLVSGYFPEPVKVSWNSGSLTSGVHTFPSVLQSSGFYSLSSMVTVPASTWTSETYICNVVHAASNFKVDKRIEPIPDNHQKVCDMSKCPKCPAPELLGGPSVFIFPPNPKDTLMITRTPEVTCVVVDVSQENPDVKFNWYMDGVEVRYATTRPKEEQFNSTYRVVSVLRIQHQDWLSGKEFKCKVNNQALPQPIERTITKTKGRSQEPQVYVLAPHPDELSKSKVSVTCLVKDFYPPEINIEWQSNGQPELETKYSTTQAQQDSDGSYFLYSKLSVDRNRWQQGTTFTCGVMHEALHNHYTQKNVSKNPGK
B26: equine IgG1 Q311C (antibody, part only; not given: variable domains, not shown: another chain or arm of the molecule)
constant: B25 constant with Y174T, Q199C
B27: equine IgG1 Q311A (antibody, part only; not given: variable domains, not shown: another chain or arm of the molecule)
constant: B25 constant with Y174T, Q199A

Substitutions are numbered along the chain they refer to. Names may count otherwise.

The target of this test is equine FcRn (large alpha subunit p51) / equine beta-2-microglobulin complex, biotinylated (equine) (UniProt P30441). The experiment in a line: SPR (Biacore), pH 6. A general note: SPR reads the build-up and loss of mass on a sensor chip optically.
Chain of UniProt P30441 (P30441 21-118, one chain of several): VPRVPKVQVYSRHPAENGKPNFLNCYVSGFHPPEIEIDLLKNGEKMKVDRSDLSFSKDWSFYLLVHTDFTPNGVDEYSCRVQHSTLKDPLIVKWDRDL
For the molecule B1, the Kd (as a rule, the concentration at which binding is half-saturated) was found to be 25.6 nM.
Take B2: the Kd is 30.9 nM.
The result for B3 reads 26.9 nM; that for B4, 17.5 nM; that for B5, 15.3 nM.
The result for B6 reads 252 nM.
As to B7, the Kd worked out at 13.3 nM.
The result for B8 reads 20.3 nM; that for B9, 24.1 nM; that for B10, 27.1 nM.
As to B11, the Kd came out at 48.7 nM.
To B12 belongs 492 nM; to B13, 48.3 nM.
The result for B14 reads 24.5 nM.
In the case of B15, the Kd came to 13.2 nM.
Regarding B16, the Kd stood at 27.2 nM.
To B17 belongs 5.2 nM.
To B18 belongs 45 nM; to B19, 21.4 nM.
Take B20: the Kd turned out to be 23.3 nM.
To B21 belongs 22.2 nM.
Turning to B22, the Kd came to 34.4 nM.
B23 yielded an equilibrium dissociation constant (Kd) of 20.2 nM.
The result for B24 reads 24.7 nM; that for B25, 15 nM.
To B26 belongs 15.7 nM; to B27, 21 nM.
